In patent publication US10919937 (Bicycle, dated 2021) one finds Ki and Kd data, which are given here for 15 molecules.

Where “and” joins values, the source holds several entries; their conditions need not be identical. Equal entries are not always repeated. *1 amine or outer side, *2 acyl side, *3 side chain or, on linkers, in order; H or OH if unused. Bridges are numbered along the chain shown (N, C = ends). Primed or numbered codes have the meaning given here. Where no end group is shown, it is not given here. [ ]: non-standard residue; d: D form. MSR‑C = 1-[4-[4-[4,6-bis[4-[1-(2-chloroacetyl)-4-piperidyl]piperazin-1-yl]-1,3,5-triazin-2-yl]piperazin-1-yl]-1-piperidyl]-2-chloro-ethanone, O=C(C[*:1])N1CCC(N2CCN(c3nc(N4CCN(C5CCN(C(=O)C[*:2])CC5)CC4)nc(N4CCN(C5CCN(C(=O)C[*:3])CC5)CC4)n3)CC2)CC1; MSR‑F = 1-[4-[4-[4,6-bis[4-[4-(2-chloroacetyl)piperazin-1-yl]phenyl]-1,3,5-triazin-2-yl]phenyl]piperazin-1-yl]-2-chloro-ethanone, O=C(C[*:1])N1CCN(c2ccc(-c3nc(-c4ccc(N5CCN(C(=O)C[*:2])CC5)cc4)nc(-c4ccc(N5CCN(C(=O)C[*:3])CC5)cc4)n3)cc2)CC1; MSR‑B = molecular scaffold reagent B, 2,4,6-tris[4-(bromomethyl)phenyl]-1,3,5-triazine, c1cc(-c2nc(-c3ccc(C[*:2])cc3)nc(-c3ccc(C[*:3])cc3)n2)ccc1C[*:1]; MSR‑B(3) = molecular scaffold reagent 2,4,6-tris[4-(bromomethyl)phenyl]-1,3,5-triazine, c1cc(-c2nc(-c3ccc(C[*:2])cc3)nc(-c3ccc(C[*:3])cc3)n2)ccc1C[*:1]; MSR‑G = scaffold reagent with three vinyl sulfonyl Michael acceptors (C9H15N3O6S3), O=S(=O)(CC[*:1])N1CN(S(=O)(=O)CC[*:2])CN(S(=O)(=O)CC[*:3])C1; MSR‑H = 1-[4-(bromomethyl)phenyl]-N,N-bis[[4-(bromomethyl)phenyl]methyl]methanamine, c1cc(C[*:1])ccc1CN(Cc1ccc(C[*:2])cc1)Cc1ccc(C[*:3])cc1; MSR‑B″ = 2,4,6-tris[4-(bromomethyl)phenyl]-1,3,5-triazine, c1cc(-c2nc(-c3ccc(C[*:2])cc3)nc(-c3ccc(C[*:3])cc3)n2)ccc1C[*:1]; MSR‑E = scaffold reagent with three bromomethyl groups (C27H24Br3N3O3); 1Nal = N[C@@H](Cc1cccc2ccccc12)C(=O)O; Tle = CC(C)(C)[C@H](N)C(=O)O; MSR‑D = not defined here A value given as a limit tells only on which side of the number the result lay.

B1: Compound I-108 (peptide)
peptide: CTEYWVDGWVPC
modifications: also: cyclised via a tyrosine linkage to an unnamed scaffold, places not given here
notes: also called 1-108
B2: Compound I-109 (peptide)
peptide: YTECWVDGWVPY
modifications: also: cyclised via a tyrosine linkage to an unnamed scaffold, places not given here
notes: also called 1-109

T1 sequence (P29317 25-534 limits assumed): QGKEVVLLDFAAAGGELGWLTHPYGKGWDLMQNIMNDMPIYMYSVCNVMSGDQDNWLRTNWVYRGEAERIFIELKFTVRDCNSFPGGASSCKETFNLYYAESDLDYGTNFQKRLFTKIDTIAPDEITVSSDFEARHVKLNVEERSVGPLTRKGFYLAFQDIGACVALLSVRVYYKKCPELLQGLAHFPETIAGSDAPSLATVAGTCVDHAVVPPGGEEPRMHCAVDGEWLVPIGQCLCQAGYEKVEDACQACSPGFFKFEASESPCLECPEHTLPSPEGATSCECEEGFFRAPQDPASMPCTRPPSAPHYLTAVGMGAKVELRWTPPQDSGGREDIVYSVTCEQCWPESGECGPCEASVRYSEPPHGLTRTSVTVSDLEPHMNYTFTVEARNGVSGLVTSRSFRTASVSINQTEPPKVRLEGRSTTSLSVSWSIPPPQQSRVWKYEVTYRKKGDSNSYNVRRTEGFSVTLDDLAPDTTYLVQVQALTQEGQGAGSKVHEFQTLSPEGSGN

For one experiment, the target named is human carbonic anhydrase IX (human, UniProt Q16790 38-414). The experiment can be described thus: competition fluorescence polarization, tracer SEQ ID NO: 11, n = 2. On the technique in general: Polarisation of emitted light reports the rotation of a fluorescent probe.
A word on the Ki: it is a dissociation constant, usually derived from enzyme kinetics or from competition with a known ligand. On to CTECWVDGWVPC (linker 1-4-12 via MSR‑B(3) (inferred), also called 1-98) [Compound I-98], for which the Ki is < 500 nM.

In the case of B1, the Ki was < 500 nM. Turning to B2, the Ki is ≥ 500 nM and < 1000 nM.

Another experiment addresses T1, EphA2 (UniProt P29317 25-534, limits assumed, biotinylated with EZ-Link Sulfo-NHS-LC-Biotin (sites not given)).
T1 construct: Fc-tagged proteins are also mentioned; also called ephrin type-A receptor 2; biotinylated EphA2
The experiment can be described thus: SPR (Biacore), biotinylated EphA2 on streptavidin, peptide as analyte, n = 2. The protocol:
SPR Measurements: Non-Fc fusion proteins were biotinylated with EZ-Link™ Sulfo-NHS-LC-Biotin for 1 hour in 4 mM sodium acetate, 100 mM NaCl, pH 5.4 with a 3× molar excess of biotin over protein. The degree of labelling was determined using a Fluorescence Biotin Quantification-Kit (Thermo) after dialysis of the reaction mixture into PBS. For analysis of peptide binding, a Biacore T200 10 instrument was used utilising a XanTec CMD500D chip. Streptavidin was immobilized on the chip using standard amine-coupling chemistry at 25° C. with HBS—N (10 mM HEPES, 0.15 M NaCl, pH 7.4) as the running buffer. Briefly, the carboxymethyl dextran surface was activated with a 7 min injection of a 1:1 ratio of 0.4 M 1-ethyl-3-(3-dimethylaminopropyl) carbodiimide hydrochloride (EDC)/0.1 M N-hydroxy succinimide (NHS) at a flow rate of 10 μl/min. For capture of streptavidin, the protein was diluted to 0.2 mg/ml in 10 mM sodium acetate (pH 4.5) and captured by injecting 120 μl onto the activated chip surface. Residual activated groups were blocked with a 7 min injection of 1 M ethanolamine (pH 8.5):HBS—N (1:1). Buffer was changed to PBS/0.05% Tween 20 and biotinylated EphA2 was captured to a level of 500-1500 RU using a dilution of protein to 0.2 μM in buffer. A dilution series of the peptides was prepared in this buffer with a final DMSO concentration of 0.5% with a top peptide concentration was 50 or 100 nM and 6 further 2-fold dilutions. The SPR analysis was run at 25° C. at a flow rate of […] with 60 seconds association and 900-1200 seconds dissociation. Data were corrected for DMSO excluded volume effects. All data were double-referenced for blank injections and reference surface using standard processing procedures and data processing and kinetic fitting were performed using Scrubber software, version 2.0c (BioLogic Software).
Data were fitted using simple 1:1 binding model allowing for mass transport effects where appropriate for binding of Bicycle Drug Conjugates, a Biacore 3000 instrument was used. For biotinylated proteins immobilisation levels were 1500 RU and the top concentration was 100 nM. Otherwise the method was the same as described above using either the CMD500D or a CM5 chip (GE Healthcare).
Background: Surface plasmon resonance follows binding to a sensor surface in real time, without labels.
In general, Kd refers to the constant that tells how readily two partners part at equilibrium. A high value points to a looser complex. Turning to ADVHCPWGPFWCPVNRPGCA (linker 5-12-19 via MSR‑F; not fully specified) [Compound I-104], the Kd is < 500 nM.

For the molecule ADVHCPWGPFWCPVNRPGCA (linker 5-12-19 via MSR‑B″) [Compound I-100], the Kd is < 500 nM. On the same count and under the same terms, then ADVHCPWGPFWCPVNRPGCA (linker 5-12-19 via MSR‑G; not fully specified) [Compound I-105], with < 500 nM. Same read-out and setting: then ADVHCPWGPFWCPVNRPGCA (linker 5-12-19 via MSR‑C; also: a note names MSR-B as the scaffold) [Compound I-101], with < 500 nM; and ADVHCPWGPFWCPVNRPGCA (linker 5-12-19 via MSR‑H; not fully specified) [Compound I-106], with < 500 nM.

A further experiment addresses T2, MT1-MMP hemopexin domain (UniProt P50281 319-511).
T2 construct: domain: hemopexin domain; also called MMP14; membrane type 1 metalloprotease
Put plainly: MT1-MMP direct binding fluorescence polarization (as titled), n = 2. The protocol:
Example 5: Dissociation Rate Constant Determination of Bicyclic Binders to MT1-MMP Direct Binding Fluorescence Polarization (Anisotropy) Assays Direct Binding Fluorescence Polarization or Anisotropy Assays are performed by titrating a constant concentration of fluorescent tracer (here, the fluoresceinated bicyclic peptide to be studied) with its binding partner (here, the MT1-MMP hemopexin domain). As the concentration of binding partner increases during the titration, the polarization signal changes in proportion to the fraction of bound and unbound material. This allows determination of […] (K_d) quantitatively. Assay data can be fit using standard ligand binding equations.
Typically, concentrations of the tracer are ideally well below the K_d of the tracer:titrant pair, and concentrations chosen are usually at ~1 nM or less. The titrant (binding partner) concentration is varied from 0.1 nM up to typically 5 μM. The range is chosen such that the maximum change in fluorescent polarization can be observed. Buffers employed are phosphate buffered saline in the presence of 0.01% Tween. Experiments were run in black 384 well low-bind/low volume plates (Corning 3820), and the fluorescent polarization signal was measured using a BMG Pherastar FS plate reader. Fluorescent tracers referred to in the text are bicyclic peptides that have been fluoresceinated using 5,6-carboxyfluorescein. Fluoresceination may be performed on the N-terminal amino group of the peptide, which is separated from the bicycle core sequence by a sarcosine spacer (usually Sar5). This can be done during Fmoc solid phase synthesis or post-synthetically (after cyclization with the molecular scaffold reagent and purification) if the N-terminal amino group is unique to the peptide. Fluoresceination can also be performed on the C-terminus, usually on a Lysine introduced as the first C-terminal residue, which is then separated from the bicycle core sequence by a sarcosine spacer (usually Sar6). Thus, N-terminal tracers can have a molecular format described as Fluo-Gly-Sar5-A(Bicycle-CoreSequence), and (BicycleCoreSequence)-A-Sar6-K (Fluo) for a C-terminally fluoresceinated construct.
For the molecule AC[dA]NE[1Nal][dA]CEDFYD[Tle]C (linker 2-8-15 via MSR‑H, also called 1-96) [Compound I-96], the Ki is < 500 nM. Still for that read-out and setting: as for AC[dA]NE[1Nal][dA]CEDFYD[Tle]C (linker 2-8-15 via MSR‑B, also called 1-90) [Compound I-90], the figure is < 500 nM; as for AC[dA]NE[1Nal][dA]CEDFYD[Tle]C (linker 2-8-15 via MSR‑F, also called 1-94) [Compound I-94], < 500 nM; as for AC[dA]NE[1Nal][dA]CEDFYD[Tle]C (linker 2-8-15 via MSR‑C, also called 1-91) [Compound I-91], < 500 nM. Same read-out and setting: then AC[dA]NE[1Nal][dA]CEDFYD[Tle]C (linker 2-8-15 via MSR‑E, also called 1-93) [Compound I-93], with < 500 nM; and AC[dA]NE[1Nal][dA]CEDFYD[Tle]C (linker 2-8-15 via MSR‑G, also called 1-95) [Compound I-95], with ≥ 500 nM and < 1000 nM; and AC[dA]NE[1Nal][dA]CEDFYD[Tle]C (linker 2-8-15 via MSR‑D; not fully specified; reading uncertain, also called 1-92) [Compound I-92], with ≥ 500 nM and < 1000 nM.
